# Test results taken from patent publication US11142588B2, “Polypeptides which bind C-X-C chemokine receptor type 4 (CXCR4) and methods of treating or reducing the risk of fibrosis and cancer” (AdAlta Limited, priority 2015, dated 2021).
# Residue numbers refer to the chain shown, from its start. Values joined by “and” are separate entries in the source; they are usually repeats but may differ in a detail not shown here. Equal entries are not always repeated. “Also recorded” adds a separate entry of the source.
# B1: AM4-272-6H: AM4-272 with 6 His tag, containing the N-terminal sequence EAEA (protein)
# chain: EAEALQVDIVPSQGEISVGESKFFLCQVAGSYSDYRISWFSPNGEKLTPNQQRISVVWNDDSSSTLTIYNANIDDAGIYKCVVYRIGGYRHRYLVLGEATVNVKIFQ
# modifications: left off: small tags and cut ends
# B2: AM4-746: affinity matured CXCR4 i-body, SEQ ID NO: 76 (protein)
# chain: LQVDIVPSQGEISVGESKFFLCQVAGSKSNIRISWFSPNGEKLTPNQQRISVVWNDDSSSTLTIYNANIDDAGIYKCVVYRTGGYRHRYLKLGEATVNVKIFQ
# modifications: protein sequence encoding AM4-746
# B3: AM4-1121: affinity matured CXCR4 i-body, SEQ ID NO: 48 (protein)
# chain: B2 chain with N30G, K91R
# modifications: protein sequence encoding AM4-1121
# Assays:
# [1] = system: Ramos tumor cells; experiment: MTT cell proliferation assay; type: cell-based, human; conditions: 24 to 72 hrs, AM3-114 at 10 μM
# Protocol: The ability of the CXCR4 molecules or polypeptides disclosed herein (i-bodies) to inhibit proliferation of Ramos tumor cells, a human Burkitt's lymphoma cell line expressing CXCR4 mentioned above, in vitro was examined in a MTT cell proliferation assay as described in (Lapteva (2005) Cancer Gene Therapy 12, 84-89). Cells were grown in a 96-well tissue culture plate and treated with a vehicle or the anti-CXCR4 body. The cells were then incubated with the MTT solution for approximately 4 hours. After this incubation period, a water-insoluble formazan dye is formed. After solubilization, the formazan dye is quantitated using a scanning multi-well spectrophotometer (ELISA reader).
# [2] = system: Ramos tumor cells; experiment: Apoptosis assay (annexin V / propidium iodide flow cytometry); type: cell-based, human; conditions: annexin V and propidium iodide double positive, 24 or 72 hours
# Protocol: The ability of an i-body of the invention to induce apoptosis in Ramos tumor cells (a human Burkitt's lymphoma cell line) was examined in an apoptosis assay according to the methods as described in Mishra M et al (2011) J Cell Mol Med 15(11):2462-77. I-bodies were incubated with Ramos cells and examined by flow cytometry after 24 or 72 hours. The cells were stained for annexin V and propidium iodide which are classic markers for apoptosis. Cells which were double positive were assessed to have become apoptotic.
# [3] = system: HIV entry into CXCR4 expressing T-cells; experiment: In vitro HIV inhibition assay; type: cell-based; conditions: Human immunodeficiency virus 1, T-cell
# [4] = Bleomycin mouse model of pulmonary fibrosis; type: in vivo
# Source text: The optimal dose of Bleomycin is 2 U/mouse and the optimal time for assessing fibrocyte recruitment was confirmed at day 4. At days 4 bronchoalvelolar lavage (BAL) fluids were collected for analysis of SDF-1 concentration. One half of the lung tissue was used to make single cell suspensions of the lung and the cells used for flow cytometry and assayed for CD45+, CXCR4+ and Collagen1+ (fibrocytes). The other half of the lung tissue was Sircol stained for the presence of collagen 1 and RNA will be tested for Col-1, Col-3 and SDF-1.
# SDF-1, fibrocytes and collagen deposition were monitored at Day 4. Groups were dosed with the i-body just prior to administration with Bleomycin. One half of the lung tissue was minced and washed in PBS and used to make single cell suspensions of the lung with Collagenase A and dispase treatment. The cells were then used for flow cytometry and assayed for CD45+, CXCR4+ and Collagen1+ fibrocytes. […]
# [5] = system: normal and IPF lung fibroblasts; experiment: Wound healing invasion assay of lung fibroblasts; type: cell-based, human
# Protocol: To determine the role of CXCR4 and CXCL12 in fibroblast invasion, normal and IPF lung fibroblasts were utilized in a wound healing invasion assay. ImageLock 96 well plates (Essen Bioscience) were coated with 50 μg/ml of Basement membrane extract (BME; Trevigen) for one hour at room temperature. Normal, and fibroblasts generated from lung biopsies of idiopathic pulmonary fibrosis (IPF) patients showing slow progression or rapid progression of the disease were plated (36,000 cells per well) on the BME-coated plates and incubated overnight. […] The BME was allowed to polymerize by incubating the plate at 37° C. for 15 minutes. The plates were then inserted into an IncuCyte Zoom imaging system and images were acquired every 2 hours for approximately 50 hours. Invasion was quantified using IncuCyte software (Essen Bioscience).
# [6] = system: CCL2 and CCL5 protein; experiment: CCL2, CCL5, CXCL12 ELISA of fibroblast conditioned supernatants; type: cell-based, human; conditions: 48 hours
# Source text: Various reports indicate that CXCR4 signals in conjunction with other chemokine receptors, including CCR2.
# [7] = cited from earlier work
# [8] = cited from earlier work; remark: listed apart in the source
# [9] = system: CCRF-CEM cells; experiment: Immunohistochemistry staining of tumours in spleen and liver of SCID/bg mice; conditions: 130 μg/ml
# Protocol: Tissues were fixed in 10% neutral buffered formalin overnight and subsequently transferred into tissue cassettes and placed in 70% ethanol. The tissues were then paraffin embedded. Slides containing 4 μm sections were deparaffinized and hydrated by incubating them in two changes of xylene for five min each, followed by two changes of 100% ethanol for 3 min each, 70% ethanol for 2 min, 50% ethanol for 2 min, and distilled water for 5 min. Antigen retrieval was performed by incubating the slides in 10 mM Citric acid solution (pH 6.0) in an 80° C. oven overnight. The slides were subsequently washed in PBS and permeabilized in 10% methanol containing 0.4% H2O2 for 30 min. […] All slides were subsequently stained with biotinylated anti-His tag antibodies (Miltenyi Biotech) and developed using an HRP-DAB cell and tissue staining kit according to the manufacturer's instructions (R&D systems).
# [10] = molecular target: T1, human CXCR4 (CXCR4 positive lipoparticles) (Homo sapiens, UniProt P61073); experiment: Biacore SPR kinetic binding to immobilised CXCR4 lipoparticles
# T1 construct: purchased Integral Molecular LEV-101B
# Protocol: (FIGS. 2A-2C, 5A-5C, 11A-11D, 17A-17B) Kinetic binding analysis of selected i-bodies with immobilized CXCR4 lipoparticles were performed at 25° C. using Biacore T200 instrument (GE Healthcare, Uppsala, Sweden). Streptavidin immobilization was performed in 1×HBS-P+ running buffer (10 mM HEPES, 150 mM NaCl, 0.05% [v/v] Tween-20). […] All binding experiments involving lipoparticles were performed with 1×HBS/BSA (10 mM HEPES, 150 mM NaCl, 1 mg/mL BSA) as instrument running buffer. […] In order to determine binding kinetics, serial dilutions (three-fold) of i-bodies diluted in 1×HBS/BSA were injected over immobilized lipoparticles with the association and dissociation phases monitored for 60 sec and 600 sec, respectively. A control measurement of the instrument running buffer (“zero-buffer” blank) solution was also included for double referencing purposes. Collected experimental data were processed using Scrubber software (www.biologic.com.au). Kinetic parameters (ka=association and kd=dissociation rate constants) and equilibrium dissociation constant (KD=kd/ka) were derived by fitting each set of experimental data to a Langmuir 1:1 binding model. All interaction measurements were performed in triplicate and the derived binding parameters reported as averaged values±standard deviation.
# [11] = molecular target: CXCR4 (Homo sapiens, UniProt P61073); experiment: Calcium flux assay (Screen Quest Fluo-8, FLIPR) in antagonist mode; type: cell-based; conditions: SDF-1 at EC80
# Protocol: Inhibition of Ca2+ influx by controls or i-bodies (IC50) was then determined.
# Mammalian cells stably expressing human CXCR4 receptor were produced in-house by Multispan, Inc (catalog no. C1004-1). Control agonist used was SDF-1 (Peprotech, Cat #300-28A).
# Cells were seeded in 384-well plate at an appropriate density and cultured overnight. Calcium assay was conducted according to the manufacturer's protocols. The calcium dye loading buffer was added to the cells and incubated for one hour at 37° C. Calcium flux was monitored for 120 seconds with compound injected into the wells at 19th second. In antagonist mode, carrier or compounds were preincubated with the cells for 30 minutes before calcium flux measurement with the control agonist at EC80 concentration obtained from dose-response curve.
# [12] = system: white blood cells, LSK and LSKSLAM cells in peripheral blood; experiment: Stem cell mobilisation in mice after i.v. injection; type: in vivo, mouse; conditions: 1 and 3 hours after i.v. injection, compared to AMD3100
# Protocol: After 1 and 3 hours, mice were euthanized and peripheral blood (PB) harvested. Spleens were harvested and weighed to assess for splenomegaly (enlargement of the spleen). Samples were lysed to remove red blood cells and 4000 cells plated for LPP (low-proliferative potential) and CFU-HPP (colony forming unit-high proliferative potential) colonies (colony counting 7 days post-plating). The remaining cells were stained with an antibody cocktail to assess lineage-committed, stem and progenitor cell content. Flow cytometric analysis was used to calculate numbers of lineage-committed cells, haemopoietic stem and progenitor cells as well as enriched HSC per volume of PB.
# [13] = Murine air pouch model with SDF-1; type: in vivo, BALB/c mice; conditions: intraperitoneal, 30 minutes before SDF-1 6 μg
# Protocol: The ability of i-bodies to block inflammation was evaluated in an in vivo murine air pouch model. The subcutaneous (s.c.) air pouch is an in vivo model used to study acute and chronic inflammation (Durate et al, Models of Inflammation: Carrageenan Air Pouch, Current Protocols in Pharmacology 5.6.1-5.6.8, March 2012). Injection of irritants into an air pouch in rats or mice induces an inflammatory response that can be quantified by the volume of exudate produced, the infiltration of cells, and the release of inflammatory mediators. An air pouch, is generated by injection of sterile air under the skin of the back of the mouse. […] Air pouch lavage fluid is then analyzed for cell trafficking and cytokine release.
# The air pouch assay was performed on 7-week-old BALB/c mice. On days 1 and 3, 0.2 ml/g initial body weight (IBW) of sterile air was injected under the back skin to create the pouch. […] Thirty minutes later, SDF-1 (6 μg) was injected into the pouch. Four hours later, the mice were killed in a CO2 chamber and the air pouch was washed. Cells were collected, counted, and characterized by flow cytometry.
# [14] = system: Human platelet rich plasma; experiment: SDF-1α induced platelet aggregation; type: cell-based; conditions: 10 or 20 ug/mL, 100 nM SDF-1 alpha
# Protocol: Experiments were carried out to examine whether the i-bodies could block platelet aggregation induced by SDF-1α. […] In the presence of negative control i-body 21H5 (or the isotype control for 12G5: mouse IgG2a). SDF-1 induced a robust and reproducible aggregation (the descending black curves, which indicate an increase in light transmission), which matches with what has been previously published.
# [15] = CXCR4 expressed on lipoparticles (Table 4)
# T1 sequence (P61073 whole entry): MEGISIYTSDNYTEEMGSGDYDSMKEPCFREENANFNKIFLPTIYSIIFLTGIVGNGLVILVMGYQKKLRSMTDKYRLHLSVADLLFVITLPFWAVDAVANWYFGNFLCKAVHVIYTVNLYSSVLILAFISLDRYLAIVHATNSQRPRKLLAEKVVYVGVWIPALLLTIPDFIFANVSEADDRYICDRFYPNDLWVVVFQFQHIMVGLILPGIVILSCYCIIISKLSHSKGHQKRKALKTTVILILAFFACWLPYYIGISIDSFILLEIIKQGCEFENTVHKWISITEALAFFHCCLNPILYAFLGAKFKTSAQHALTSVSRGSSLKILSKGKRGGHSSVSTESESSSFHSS
# CXCR4, sequence (P61073 whole entry): as above
molecule,measurement,setting,value
"c1cc(CN2CCCNCCNCCCNCC2)ccc1CN1CCCNCCNCCCNCC1 [AMD3100, reference compound]",growth of RAMOS cells,[1],able to inhibit cell growth
same,induction of apoptosis in Ramos cells,[2],does not induce significant apoptosis
same,IC50,[3],50 nM
same,recruitment of fibrocytes into the lungs,"[4]; day 4, dose not given",able to block recruitment of fibrocytes
same,collagen content of the lung (Sircol),"[4]; positive controls, dose not stated",reduction in collagen
same,"invasion / motility of normal, slow and rapid IPF lung fibroblast lines","[5]; AMD3100 12 μM, 21H5 130 μg/ml",had no effect
same,CCL2 protein in IPF fibroblast conditioned supernatants,[6],markedly increased
same,development of pulmonary fibrosis in irradiated mice,[7]; Shu et al 2013,did not significantly suppress
same,bleomycin induced pulmonary fibrosis,[7]; Xu et al 2007,effectively alleviate bleomycin induced pulmonary fibrosis
c1ccc(CNCc2ccc(CN3CCCNCCNCCCNCC3)cc2)nc1 [AMD3465],effectiveness relative to AMD3100 at releasing neutrophils from the bone marrow,[8]; Hatse et al 2005,10 fold
same,diet-induced atherosclerotic lesion development,"[8]; long-term inhibition, Apoe−/− and Ldlr−/− mice, Zernecke et al 2008",aggravated diet-induced atherosclerotic lesion development
B1,induction of apoptosis in Ramos cells,[2],strongly induce apoptosis
same,staining of CCRF-CEM cells in spleen and liver,[9],stained CCRF-CEM cells
same,invasion of rapid-IPF (fast progressor) lung fibroblasts,[5]; 130 μg/ml,two out three
same,invasion of slow-IPF lung fibroblasts,[5]; 130 μg/ml,inhibited invasion
same,CCL2 protein in IPF fibroblast conditioned supernatants,[6],markedly increased
same,CCL5 levels in IPF lung fibroblasts,[6],increased CCL5 levels in some IPF lung fibroblasts
B2,Ka,[10]; [15],2.5e+06 M⁻¹ s⁻¹
same,Calcium Inhibition EC50,[11],uM
same,mobilisation of white blood cells,[12],No mobilisation
same,cell migration / leukocyte infiltration into the air pouch,[13],inhibiting leukocyte infiltration; also recorded: inhibited cell migration
same,blocking of SDF-1α induced platelet aggregation,[14],blocked aggregation to the same extent as the MAb12G5
B3,Ka,[10]; [15],1.289e+06 M⁻¹ s⁻¹ and 1.42e+06 M⁻¹ s⁻¹
same,dissociation rate constant (kd),[10]; [15],9290 M⁻¹ s⁻¹ and 9540 M⁻¹ s⁻¹
same,dissociation rate constant (kd),"[10]; off-rate, CXCR4 expressed on lipoparticles (Table 3)",0.1153
same,Calcium Inhibition EC50,[11],uM
same,mobilisation of white blood cells,[12],No mobilisation
same,cell migration / leukocyte infiltration into the air pouch,[13],inhibiting leukocyte infiltration; also recorded: inhibited cell migration
same,blocking of SDF-1α induced platelet aggregation,[14],most effective; also recorded: most efficient
